Measured values: patent US5691180

Columns and labels:
[1] = molecular target: iminobiotinylated bovine fetuin (bovine) (UniProt P12763)
[2] = molecular target: IgG-Sepharose (Pharmacia); experiment: IgG-Sepharose batch adsorption of conditioned medium, GalNAc-transferase activity assayed on the beads (Table 1B, Sepharose-IgG: applied 4914, flowthrough 214, bound 1853 units)

Released activity (units) of GalNAc-transferase [1] [units] | percent of applied activity bound [2] [%] | Substance
8390 |  | UDP-GalNAc: NeuAcα2,3Galβ-R β1,4-N-acetyl-galactosamine-transferase encoded by pCDM8-CT (full-length, wild type enzyme)
9830 | 37 | protein A-GalNAc-transferase fusion protein (pPROTA-CTc) (from UniProt P38507) (enzyme)
